From patent publication US20250011363A1, “OPTIMIZED SHORTENED PEPTIDE THAT BINDS TO ACETYLCHOLINE RECEPTOR, AND USE THEREOF” (SKINMED CO., LTD., priority 2021, published 2025)

What follows are binders tested against acetylcholine receptor (assay: SPR, AchR immobilised on CM5 chip, peptide at 10 uM).

Binding affinity (RU) | Binder
28 | RYAKK [5mer-1192]
148 | KKGQYK [6mer-1-420]
148 | KKLFYK [6mer-1-436]
27 | RYHWR [5mer-896]
147 | KRWVLR [6mer-1-427]
137 | KRWVCR [6mer-1-434]
153 | KRSFLR [6mer-1-414]
24 | KDDAR [5mer-1197]
131 | RKWFLK [6mer-1-437]
19 | RHWEK [5mer-1195]
18 | RFTKK [5mer-895]
32 | RFSEK [5mer-1190]
139 | KRVVLR [6mer-1-428]
18 | KMSPR [5mer-894]
135 | RRRIYR [6mer-1-424]
153 | KRSQTK [6mer-1-403]
137 | KKQRQK [6mer-1-404]
18 | RDNGK [5mer-1194]
121 | RRQRSR [6mer-1-411]

Binding affinity (RU) | Binder
148 | KRVLRK [6mer-1-410]
147 | RRGYCK [6mer-1-423]
139 | RKSILK [6mer-1-412]
154 | KRVRQR [6mer-1-422]
148 | KRGFYR [6mer-1-419]
139 | RKSVCK [6mer-1-417]
135 | RRGVCR [6mer-1-415]
24 | RICIR [5mer-1196]
30 | KFCER [5mer-897]
123 | RRQVRK [6mer-1-418]
153 | RKLIYR [6mer-1-416]
20 | RYCMR [5mer-898]
148 | KKVQTR [6mer-1-1405]
144 | RRWISR [6mer-1-409]
131 | KKGQYR [6mer-1-426]
29 | RKPMR [5mer-892]
147 | KRGRSR [6mer-1-408]
154 | RKQQYR [6mer-1-433]
11 | RKMDK [5mer-1189]

Binding affinity (RU) | Binder
148 | RKQFCR [6mer-1-413]
131 | RKGVQK [6mer-1-425]
153 | RRRVLR [6mer-1-402]
135 | RRQRRK [6mer-1-429]
25 | KTPGR [5mer-889]
24 | RKKMK [5mer-891]
135 | RKVLYR [6mer-1-421]
30 | RMDWK [5mer-1191]
153 | KRLRTR [6mer-1-407]
142 | RRGFQK [6mer-1-438]
144 | KKQLQK [6mer-1-430]
153 | RKVLLR [6mer-1-406]
135 | RKWRCK [6mer-1-435]
144 | RRRFRR [6mer-1-431]
139 | RKGIQK [6mer-1-432]
33 | KKHFK [5mer-890]
25 | RAADK [5mer-1198]
22 | KHWFK [5mer-1193]
18 | RIKIK [5mer-893]
